We go through six sequences from the supplement of paper PMC5998384.

For data set [1], the system named is HeLa Kyoto. Nature of the data set: solubility in G1/S (NP-40 vs SDS abundance) (log2 ratio); higher = more soluble. To be noted: cell cycle stage: G1/S.
In data set [2] the test system is HeLa Kyoto. In words: melting temperature (median over replicates), in situ; higher = more thermally stable.
Data set [3] relates to HeLa Kyoto. In words: solubility change mitosis vs G1/S (difference of NP-40 vs SDS log2 ratios) (log2 ratio difference); higher = more soluble in mitosis.
Data set [4] concerns HeLa Kyoto. Nature of the data set: thermal stability score vs G1/S (z-score of summed log2 fold changes over temperatures); higher = more thermally stable than in G1/S.
[5] abbreviates: cell cycle stage: early G1 (4.5 h after nocodazole release).
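Wherever melting temperature (median over replicates), in situ is given: HeLa Kyoto cells synchronized by double thymidine or nocodazole block, proteins quantified by TMT10plex mass spectrometry, three independent biological replicates.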
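Wherever solubility change mitosis vs G1/S (difference of NP-40 vs SDS log2 ratios) is given: synchronized HeLa Kyoto cells (double thymidine block for G1/S, nocodazole release for mitosis), protein amounts in NP-40 versus SDS lysates quantified by mass spectrometry, three biological replicates.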
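Wherever solubility in G1/S (NP-40 vs SDS abundance) is given: HeLa Kyoto cells arrested at G1/S by double thymidine block, proteins quantified by TMT10plex mass spectrometry in mild NP-40 versus SDS extracts, three biological replicates.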
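Wherever thermal stability score vs G1/S (z-score of summed log2 fold changes over temperatures) is given: synchronized HeLa Kyoto cells, proteins quantified by TMT10plex mass spectrometry, three biological replicates, mitosis taken 0.5 h after nocodazole release, G1/S directly after double thymidine block.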

For the sequence “MSASAPAAEGEGTPTQPASEKEPEMPGPREESEEEEDEDDEEEEEEEKEKSLIVEGKREKKKVERLTMQVSSLQREPFTIAQGKGQKLCEIERIHFFLSKKKTDELRNLHKLLYNRPGTVSSLKKNVGQFSGFPFEKGSVQYKKKEEMLKKFRNAMLKSICEVLDLERSGVNSELVKRILNFLMHPKPSGKPLPKSKKTCSKGSKKERNSSGMARKAKRTKCPEILSDESSSDEDEKKNKEESSDDEDKESEEEPPKKTAKREKPKQKATSKSKKSVKSANVKKADSSTTKKNQNSSKKESESEDSSDDEPLIKKLKKPPTDEELKETIKKLLASANLEEVTMKQICKKVYENYPTYDLTERKDFIKTTVKELIS”, the “solubility in G1/S (log2)” value in the data set on HeLa Kyoto [1] was -0.0398. In addition, the melting temperature in the data set on HeLa Kyoto [2] (cell cycle stage: G1/S) was 48.8 °C; in the data set on HeLa Kyoto [2] (cell cycle stage: mitosis), 50.7 °C. For the same sequence, the “solubility change mitosis (log2)” value in the data set on HeLa Kyoto [3] is 0.338. Besides, the thermal stability score in the data set on HeLa Kyoto [4] (setting [5]) came to 7.97; in the data set with HeLa Kyoto [4] (cell cycle stage: mitosis), 13.2.
As to “MSASAQQLAEELQIFGLDCEEALIEKLVELCVQYGQNEEGMVGELIAFCTSTHKVGLTSEILNSFEHEFLSKRLSKARHSTCKDSGHAGARDIVSIQELIEVEEEEEILLNSYTTPSKGSQKRAISTPETPLTKRSVSTRSPHQLLSPSSFSPSATPSQKYNSRSNRGEVVTSFGLAQGVSWSGRGGAGNISLKVLGCPEALTGSYKSMFQKLPDIREVLTCKIEELGSELKEHYKIEAFTPLLAPAQEPVTLLGQIGCDSNGKLNNKSVILEGDREHSSGAQIPVDLSELKEYSLFPGQVVIMEGINTTGRKLVATKLYEGVPLPFYQPTEEDADFEQSMVLVACGPYTTSDSITYDPLLDLIAVINHDRPDVCILFGPFLDAKHEQVENCLLTSPFEDIFKQCLRTIIEGTRSSGSHLVFVPSLRDVHHEPVYPQPPFSYSDLSREDKKQVQFVSEPCSLSINGVIFGLTSTDLLFHLGAEEISSSSGTSDRFSRILKHILTQRSYYPLYPPQEDMAIDYESFYVYAQLPVTPDVLIIPSELRYFVKDVLGCVCVNPGRLTKGQVGGTFARLYLRRPAADGAERQSPCIAVQVVRI [POLA2]”, in the data set with HeLa Kyoto [1], the “solubility in G1/S (log2)” value stood at 0.0737. The melting temperature was 48.8 °C in the data set on HeLa Kyoto [2] (cell cycle stage: G1/S) and 50.2 °C in the data set on HeLa Kyoto [2] (cell cycle stage: mitosis). Besides, the “solubility change mitosis (log2)” value in the data set on HeLa Kyoto [3] is -0.155. The results for the thermal stability score with HeLa Kyoto [4] (setting [5]) and with HeLa Kyoto [4] (cell cycle stage: mitosis) were 1.44 and 4.66, respectively.
Consider “MSASLVRATVRAVSKRKLQPTRAALTLTPSAVNKIKQLLKDKPEHVGVKVGVRTRGCNGLSYTLEYTKTKGDSDEEVIQDGVRVFIEKKAQLTLLGTEMDYVEDKLSSEFVFNNPNIKGTCGCGESFNI [ISCA1]”, for which the “solubility in G1/S (log2)” value in the data set with HeLa Kyoto [1] was 0.427. Besides, the melting temperature with HeLa Kyoto [2] (cell cycle stage: G1/S) is 52.3 °C; with HeLa Kyoto [2] (cell cycle stage: mitosis), 51.9 °C. For the same sequence, the “solubility change mitosis (log2)” value with HeLa Kyoto [3] was -0.0859. The thermal stability score in the data set with HeLa Kyoto [4] (setting [5]) was -0.782; in the data set on HeLa Kyoto [4] (cell cycle stage: mitosis), -2.35.
As to “MSATVVDAVNAAPLSGSKEMSLEEPKKMTREDWRKKKELEEQRKLGNAPAEVDEEGKDINPHIPQYISSVPWYIDPSKRPTLKHQRPQPEKQKQFSSSGEWYKRGVKENSIITKYRKGACENCGAMTHKKKDCFERPRRVGAKFTGTNIAPDEHVQPQLMFDYDGKRDRWNGYNPEEHMKIVEEYAKVDLAKRTLKAQKLQEELASGKLVEQANSPKHQWGEEEPNSQMEKDHNSEDEDEDKYADDIDMPGQNFDSKRRITVRNLRIREDIAKYLRNLDPNSAYYDPKTRAMRENPYANAGKNPDEVSYAGDNFVRYTGDTISMAQTQLFAWEAYDKGSEVHLQADPTKLELLYKSFKVKKEDFKEQQKESILEKYGGQEHLDAPPAELLLAQTEDYVEYSRHGTVIKGQERAVACSKYEEDVKIHNHTHIWGSYWKEGRWGYKCCHSFFKYSYCTGEAGKEIVNSEECIINEITGEESVKKPQTLMELHQEKLKEEKKKKKKKKKKHRKSSSDSDDEEKKHEKLKKALNAEEARLLHVKETMQIDERKRPYNSMYETREPTEEEMEAYRMKRQRPDDPMASFLGQ [SLU7]”, the “solubility in G1/S (log2)” value in the data set on HeLa Kyoto [1] is -0.523. The melting temperature in the data set with HeLa Kyoto [2] (cell cycle stage: G1/S) came out at 46.9 °C; with HeLa Kyoto [2] (cell cycle stage: mitosis) it was 49.9 °C. Besides, the “solubility change mitosis (log2)” value with HeLa Kyoto [3] is 0.256. For the same sequence, the thermal stability score in the data set on HeLa Kyoto [4] (setting [5]) was 0.191; with HeLa Kyoto [4] (cell cycle stage: mitosis), 0.493.
As for “MSAYPKSYNPFDDDGEDEGARPAPWRDARDLPDGPDAPADRQQYLRQEVLRRAEATAASTSRSLALMYESEKVGVASSEELARQRGVLERTEKMVDKMDQDLKISQKHINSIKSVFGGLVNYFKSKPVETPPEQNGTLTSQPNNRLKEAISTSKEQEAKYQASHPNLRKLDDTDPVPRGAGSAMSTDAYPKNPHLRAYHQKIDSNLDELSMGLGRLKDIALGMQTEIEEQDDILDRLTTKVDKLDVNIKSTERKVRQL [SNAP29]”, the “solubility in G1/S (log2)” value in the data set with HeLa Kyoto [1] was 0.394. In addition, the melting temperature in the data set with HeLa Kyoto [2] (cell cycle stage: G1/S) and with HeLa Kyoto [2] (cell cycle stage: mitosis) was 52.7 °C in each case. In addition, the “solubility change mitosis (log2)” value in the data set with HeLa Kyoto [3] came out at 0.314. Further, the thermal stability score in the data set on HeLa Kyoto [4] (setting [5]) was -4.76; in the data set on HeLa Kyoto [4] (cell cycle stage: mitosis), -2.04.
For “MSDEEARQSGGSSQAGVVTVSDVQELMRRKEEIEAQIKANYDVLESQKGIGMNEPLVDCEGYPRSDVDLYQVRTARHNIICLQNDHKAVMKQVEEALHQLHARDKEKQARDMAEAHKEAMSRKLGQSESQGPPRAFAKVNSISPGSPASIAGLQVDDEIVEFGSVNTQNFQSLHNIGSVVQHSEGKPLNVTVIRRGEKHQLRLVPTRWAGKGLLGCNIIPLQR [PSMD9]”, the “solubility in G1/S (log2)” value in the data set on HeLa Kyoto [1] worked out at 0.431. Besides, the results for the melting temperature in the data set with HeLa Kyoto [2] (cell cycle stage: G1/S) and in the data set with HeLa Kyoto [2] (cell cycle stage: mitosis) were 55.8 °C and 55.7 °C, respectively. Moreover, the “solubility change mitosis (log2)” value in the data set on HeLa Kyoto [3] came to 0.112. In addition, the thermal stability score in the data set on HeLa Kyoto [4] (setting [5]) is -2.77; with HeLa Kyoto [4] (cell cycle stage: mitosis) it was -3.23.
